Laboratory results from paper PMC4444369 (Journal of molecular biology, 2014).

Biological target: APC3 (wild-type, untagged) (human, UniProt P30260-2 1-830)
Experiment: SEC

B1: APC16^C (Strep tag removed by TEV) (domain or fragment)
chain: not shown
B1: binds.
